{"source": "patent US7795009", "tested_on": "prothrombin", "data": [{"substance": "Factor Xa", "values": [{"measurement": "sensitized acceptor emission of the thrombin beacon as a function of time", "result": "This conversion resulted in a time-dependent increase of beacon signal"}]}]}
